Data: patent US20250179142A1 (SUNSHINE LAKE PHARMA, published 2025)

What was measured:
[1] = molecular target: glucagon-like peptide-1 receptor (UniProt P43220 24-463, limits assumed); assay: cell-based or functional assay
[2] = molecular target: the molecule itself; assay: SEC (size exclusion HPLC), self-association of the Fc into a homodimer
Method: (§1) In this example, the effects of introducing different mutations on the structural properties of Fc were tested, and the test results of some mutants are shown in Table 5. Test steps include:
(§2) Molecular cloning method was used to insert Fc nucleic acid sequence into mammalian cell expression vector, and ExpiCHO Fectamine™ CHO Transfection Kit (ThermoFisher Scientific) was used for transient transfection and expression in CHO-S cells; after purification by Protein A column, the target protein was obtained, and the target protein was analyzed by size exclusion high performance liquid chromatography (SEC). The main principle of SEC analysis is based on the molecular weight and three-dimensional structure of the analyte (such as protein). Generally, analytes with larger molecular weights will pass through the chromatographic column more quickly, so they have a shorter column retention time. On the contrary, analytes with smaller molecular weights have longer retention times. So SEC can be used to analyze the aggregation of protein molecules.

[3] = molecular target: the molecule itself; assay: SEC (size exclusion HPLC), self-association of the Fc
Method: as §1, §2

Binder | GLP-1 activity (EC50, nM): intracellular cAMP in HEK293 cells with high GLP-1R expression [1] [nM] | other results
GLP-1-Fc-GDF15 fusion protein D8 (Fc fusion) HGEGTFTSDVSSYLEEQAAKEFIAWLVKGGGGGGGSGGGGSGGGGSAPEAAGGPSVFLFPPKPKDTLMISRTPEVTCVVVDVSQEDPEVQFNWYVDGVEVHNAKTKPREEQFNSTYRVVSVLTVLHQDWLNGKEYKCKVSNKGLPSSIEKTISKAKGQPREPQVYTLPPSQEEMTKNQVSLTCLVKGFYPSDIAVEWESNGQPENNYKTTPPVLDSDGSFFLYSRLTVDKSRWQEGNVFSCSVMHEALHNHYTQESLSLSLGGGGGSGGGGSAPAPAPAPAPAPAPAPAPAPGGGGSGGGGSDHCPLGPGRCCRLHTVRASLEDLGWADWVLSPREVQVTMCIGACPSQFRAANMHAQIKTSLHRLKPDTVPAPCCVPASYNPMVLIQKTDTGVSLQTYDDLLAKDCHCI | 0.084 | 
GLP-1-Fc-GDF15 fusion protein D9 (Fc fusion) HGEGTFTSDVSSYLEEQAAKEFIAWLVKGGGGGGGSGGGGSGGGGSAPEAAGGPSVFLFPPKPKDTLMISRTPEVTCVVVDVSQEDPEVQFNWYVDGVEVHNAKTKPREEQFNSTYRVVSVLTVLHQDWLNGKEYKCKVSNKGLPSSIEKTISKAKGQPREPQVYTLPPSQEEMTKNQVSLTCLVKGFYPSDIAVEWESNGQPENNYKTTPPVLDSDGSFFLYSRLTVDKSRWQEGNVFSCSVMHEALHNHYTQQSLSLSLGGGGGSGGGGSAPAPAPAPAPAPAPAPAPAPGGGGSGGGGSDHCPLGPGRCCRLHTVRASLEDLGWADWVLSPREVQVTMCIGACPSQFRAANMHAQIKTSLHRLKPDTVPAPCCVPASYNPMVLIQKTDTGVSLQTYDDLLAKDCHCI | 0.1 | 
IgG4 Fc (AA, K439E) (other) EAAGGPSVFLFPPKPKDTLMISRTPEVTCVVVDVSQEDPEVQFNWYVDGVEVHNAKTKPREEQFNSTYRVVSVLTVLHQDWLNGKEYKCKVSNKGLPSSIEKTISKAKGQPREPQVYTLPPSQEEMTKNQVSLTCLVKGFYPSDIAVEWESNGQPENNYKTTPPVLDSDGSFFLYSRLTVDKSRWQEGNVFSCSVMHEALHNHYTQESLSLSLG |  | binding result [2]: binds
IgG4 Fc (AA, K439D) (other) EAAGGPSVFLFPPKPKDTLMISRTPEVTCVVVDVSQEDPEVQFNWYVDGVEVHNAKTKPREEQFNSTYRVVSVLTVLHQDWLNGKEYKCKVSNKGLPSSIEKTISKAKGQPREPQVYTLPPSQEEMTKNQVSLTCLVKGFYPSDIAVEWESNGQPENNYKTTPPVLDSDGSFFLYSRLTVDKSRWQEGNVFSCSVMHEALHNHYTQDSLSLSLG |  | binding result [2]: binds
IgG4 Fc (AA, F405Q/Y407E) (other) EAAGGPSVFLFPPKPKDTLMISRTPEVTCVVVDVSQEDPEVQFNWYVDGVEVHNAKTKPREEQFNSTYRVVSVLTVLHQDWLNGKEYKCKVSNKGLPSSIEKTISKAKGQPREPQVYTLPPSQEEMTKNQVSLTCLVKGFYPSDIAVEWESNGQPENNYKTTPPVLDSDGSFQLESRLTVDKSRWQEGNVFSCSVMHEALHNHYTQKSLSLSLG |  | binding result [3]: no binding
GLP-1-Fc-GDF15 fusion protein D11 (Fc fusion) HGEGTFTSDVSSYLEEQAAKEFIAWLVKGGGGGGGSGGGGSGGGGSEAAGGPSVFLFPPKPKDTLMISRTPEVTCVVVDVSQEDPEVQFNWYVDGVEVHNAKTKPREEQFNSTYRVVSVLTVLHQDWLNGKEYKCKVSNKGLPSSIEKTISKAKGQPREPQVYTLPPSQEEMTKNQVSLTCLVKGFYPSDIAVEWESNGQPENNYKTTPPVLDSDGSFFLYSRLTVDKSRWQEGNVFSCSVMHEALHNHYTQESLSLSLGGGGGSGGGGSAPAPAPAPAPAPAPAPAPAPGGGGSGGGGSDHCPLGPGRCCRLHTVRASLEDLGWADWVLSPREVQVTMCIGACPSQFRAANMHAQIKTSLHRLKPDTVPAPCCVPASYNPMVLIQKTDTGVSLQTYDDLLAKDCHCI | 0.118 | 
GLP-1-Fc-GDF15 fusion protein D13 (Fc fusion) HGEGTFTSDVSSYLEEQAAKEFIQWLVKGGGGGGGSGGGGSGGGGSEAAGGPSVFLFPPKPKDTLMISRTPEVTCVVVDVSQEDPEVQFNWYVDGVEVHNAKTKPREEQFNSTYRVVSVLTVLHQDWLNGKEYKCKVSNKGLPSSIEKTISKAKGQPREPQVYTLPPSQEEMTKNQVSLTCLVKGFYPSDIAVEWESNGQPENNYKTTPPVLDSDGSFFLYSRLTVDKSRWQEGNVFSCSVMHEALHNHYTQESLSLSLGGGGGSGGGGSAPAPAPAPAPAPAPAPAPAPGGGGSGGGGSDHCPLGPGRCCRLHTVRASLEDLGWADWVLSPREVQVTMCIGACPSQFRAANMHAQIKTSLHRLKPDTVPAPCCVPASYNPMVLIQKTDTGVSLQTYDDLLAKDCHCI | 0.124 | 
GLP-1-Fc-GDF15 fusion protein D14 (Fc fusion) HGEGTFTSDVSSYLEEQAAKEFVQWLVKGGGGGGGSGGGGSGGGGSEAAGGPSVFLFPPKPKDTLMISRTPEVTCVVVDVSQEDPEVQFNWYVDGVEVHNAKTKPREEQFNSTYRVVSVLTVLHQDWLNGKEYKCKVSNKGLPSSIEKTISKAKGQPREPQVYTLPPSQEEMTKNQVSLTCLVKGFYPSDIAVEWESNGQPENNYKTTPPVLDSDGSFFLYSRLTVDKSRWQEGNVFSCSVMHEALHNHYTQESLSLSLGGGGGSGGGGSAPAPAPAPAPAPAPAPAPAPGGGGSGGGGSDHCPLGPGRCCRLHTVRASLEDLGWADWVLSPREVQVTMCIGACPSQFRAANMHAQIKTSLHRLKPDTVPAPCCVPASYNPMVLIQKTDTGVSLQTYDDLLAKDCHCI | 0.183 | 
